Experiment [1] has as its target purified human TGF-β1 (human) (UniProt P01137).
Experiment [2] shares this target. The source holds these as a separate data set.
The target in experiment [3] is active TGF-β produced by Mv1Lu cells (mink).
For experiment [4], the target named is purified human TGF-β1 (human) (UniProt P01137). The source holds these as a separate data set.
The target in experiment [5] is T1, recombinant human BMP-2 (human) (UniProt P12643).
T1 sequence: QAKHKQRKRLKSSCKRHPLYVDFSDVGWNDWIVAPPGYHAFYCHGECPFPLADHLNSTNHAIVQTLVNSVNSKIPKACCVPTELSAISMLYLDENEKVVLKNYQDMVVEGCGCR

The target of experiment [6] is TGF-β in dexamethasone-treated rat bone marrow cultures (rat).
Experiment [7] deals with BMP-4. In words: SPR (BIAcore); analyte over immobilized cytokine. In general terms: Surface plasmon resonance follows binding to a sensor surface in real time, without labels.
Experiment [8] addresses BMP-6. As to the kind of experiment: SPR (BIAcore); analyte over immobilized cytokine.
Experiment [9] addresses TGF-β2. As to the kind of experiment: SPR (BIAcore); analyte over immobilized cytokine.
Experiment [10] deals with BMP-4. In words: SPR (BIAcore); analyte over immobilized cytokine; repeated calculation.
Experiment [11] addresses BMP-6. The experiment is described as above.
In experiment [12] the target is TGF-β2. The experiment is described as above.

Values joined by “and” are separate entries in the source; they are usually repeats but may differ in a detail not shown here. Identical values can stand only once.

The source of these data is patent US5981483.

Sequence of BMP-6 (P22004 375-513): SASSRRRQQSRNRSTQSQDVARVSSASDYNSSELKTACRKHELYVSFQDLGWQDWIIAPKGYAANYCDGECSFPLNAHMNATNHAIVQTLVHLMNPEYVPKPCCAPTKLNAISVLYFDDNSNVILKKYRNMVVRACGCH
Sequence of purified human TGF-β1 (human) (P01137 279-390 limits assumed): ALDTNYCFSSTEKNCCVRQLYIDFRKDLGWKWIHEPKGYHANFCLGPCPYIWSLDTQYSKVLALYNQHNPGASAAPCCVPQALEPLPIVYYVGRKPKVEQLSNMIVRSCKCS

B1: bovine fetuin (protein)
chain: IPLDPVAGYKEPACDDPDTEQAALAAVDYINKHLPRGYKHTLNQIDSVKVWPRRPTGEVYDIEIDTLETTCHVLDPTPLANCSVRQQTQHAVEGDCDIHVLKQDGQFSVLFTKCDSSPDSAEDVRKLCPDCPLLAPLNDSRVVHAVEVALATFNAESNGSYLQLVEISRAQFVPLPVSVSVEFAVAATDCIAKEVVDPTKCNLLAEKQYGFCKGSVIQKALGGEDVRVTCTLFQTQPVIPQPQPDGAEAEAPSAVPDAAGPTPSAAGPPVASVVVGPSVVAVPLPLHRAHYDLRHTFSGVASVESSSGEAFHVGKTPIVGQPSIPGGPVRLCPGRIRYFKI
Usually Kd stands for the concentration at which binding is half-saturated. As a reminder, the koff is a measure of how fast the partners let go of each other. Broadly, the kon is the rate constant with which the complex forms. For B1, in experiment [1], the percent neutralization of the antiproliferative activity of TGF-β1 (3H-thymidine incorporation, Mv1Lu cells) came to 150%. Besides, the IC50, inhibition of the anti-proliferative activity of TGF-β1 (12 pM) on Mv1Lu cells in [2] stood at 4.2e-06 M. Also, the proliferation of Mv1Lu cells without added cytokine (3H-thymidine incorporation) in [3] was 8 pM. This molecule also displayed an IC50, block of the anti-proliferative activity of exogenously added TGF-β1 (18 pM) on Mv1Lu cells (FIG. 12) in experiment [4] of 3e-06 M. In [5], the IC50, reversal of BMP-2 inhibition of Mv1Lu cell growth is 2000 nM and 5000 nM. Further, in experiment [6], the IC50, inhibition of calcium-deposition is 10000 nM. For the same molecule, the dissociation constant Kd was 140 nM with BMP-4 [7]; 860 nM with BMP-6 [8]; 120 nM with BMP-4 [10]; 710 nM with BMP-6 [11]; 4400 nM in the experiment with TGF-β2 [12]. In addition, the dissociation rate constant (koff) with BMP-4 [7] was 0.00058 s⁻¹; with BMP-6 [8] it was 0.0025 s⁻¹; with TGF-β2 [9], 0.0032 s⁻¹; with BMP-4 [10], 0.00051 s⁻¹; in the experiment with BMP-6 [11] it was 0.0021 s⁻¹; with TGF-β2 [12], 0.0024 s⁻¹. For the same molecule, the kon with BMP-4 [7] was 4200 M⁻¹ s⁻¹; with BMP-6 [8], 2900 M⁻¹ s⁻¹; with TGF-β2 [9], 550 M⁻¹ s⁻¹; with BMP-4 [10], 4200 M⁻¹ s⁻¹; with BMP-6 [11], 2900 M⁻¹ s⁻¹; with TGF-β2 [12] it was 550 M⁻¹ s⁻¹.
